Key:
[1] = target: T1, human CD3 on Jurkat.2B8 (CD3+/EGFR-) cells (human, UniProt P07766 23-207); experiment: flow cytometry on Jurkat.2B8 (CD3+/EGFR-) cells
T1 construct: whole, on cells; CD3 complex on cells; also called hCD3
Method: Binding of EGFR×CD3 bispecific antibodies to human CD3 and EGFR expressing cells was determined by flow cytometry.
(§1) After washing twice with cold PBS supplemented with 1% bovine serum albumin (wash buffer), cell surface bound antibody was detected by incubating the cells with Fluorescence-labeled anti-human IgG antibody for 30 minutes at 4° C. Cells were washed twice in the same buffer and the mean fluorescence (MFI) of stained cells was measured using a FACS Canto II cytometer (BD Biosciences). Wells containing no antibody or secondary antibody only were used to establish background fluorescence. Four-parameter non-linear regression analysis was used to obtain EC₅₀ values for cell binding using GraphPad Prism software.

[2] = target: T2, cynomolgus monkey CD3 on cynomolgus monkey PBMC / T cells (cynomolgus monkey, UniProt Q95LI5 22-198); experiment: flow cytometry on cyno T cells (cynomolgus monkey PBMC)
T2 construct: whole, on cells; CD3 complex on primary cells; also called cyno CD3
Method: (§2) Binding of EGFR×CD3 bispecific antibodies to cynomolgus monkey CD3 and EGFR expressing cells was determined by flow cytometry.
as §1, with “Briefly, 1×10⁵ cynomolgus monkey PBMC(CD3+/EGFR−) cells or CHOK1-cynoPro1 (EGFR+/CD3−) cells were incubated for 60 minutes at 4° C. with serial dilutions of EGFR×CD3 bispecific or hIgG4 isotype control antibodies. After” for “After”

[3] = target: T1, human CD3 on Jurkat.2B8 (CD3+/EGFR-) …; experiment: FACS affinity on Jurkat.2B8 cells, quantitative beads
Method: Tested antibodies were serially diluted in wash buffer (1×PBS/1% BSA) and incubated with cells at 4° C. for 1 h. […] The cells were then washed once and re-suspended in 1×PBS/1% BSA, and analyzed by flow cytometry. Fluorescence intensity will be converted to bound molecules/cell based on the quantitative beads (Quantum™ MESF Kits, Bangs Laboratories, Inc.).

[4] = target: T3, cynomolgus monkey EGFR on CHOK1-cynoPro1 (EGFR+/CD3-) cells (cynomolgus monkey, UniProt A0A2K5WK39 25-1210); experiment: flow cytometry on CHOK1-cynoPro1 cells
T3 construct: whole, on cells; also called cyno EGFR
Method: as §2
as §1, with “Briefly, 1×10⁵ cynomolgus monkey PBMC(CD3+/EGFR−) cells or CHOK1-cynoPro1 (EGFR+/CD3−) cells were incubated for 60 minutes at 4° C. with serial dilutions of EGFR×CD3 bispecific or hIgG4 isotype control antibodies. After” for “After”

T1 sequence (P07766 23-207): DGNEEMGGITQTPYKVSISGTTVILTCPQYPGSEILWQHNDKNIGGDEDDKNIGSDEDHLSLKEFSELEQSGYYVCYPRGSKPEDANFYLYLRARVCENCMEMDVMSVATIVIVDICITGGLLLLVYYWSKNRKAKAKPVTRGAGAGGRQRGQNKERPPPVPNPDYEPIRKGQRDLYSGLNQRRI
T2 sequence (Q95LI5 22-198): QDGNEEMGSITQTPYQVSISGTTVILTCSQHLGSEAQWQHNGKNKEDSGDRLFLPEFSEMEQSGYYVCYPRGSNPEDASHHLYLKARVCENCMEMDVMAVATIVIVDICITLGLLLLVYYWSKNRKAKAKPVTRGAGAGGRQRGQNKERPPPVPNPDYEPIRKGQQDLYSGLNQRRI

B1: W3311-2.306.4-z1-uIgG1K (antibody, V domains shown)
VH: QVQLVQSGAEVKKPGSSVKVSCKASGFAFTDYYIHWVRQAPGQGLEWMGWISPGNVNTKYNENFKGRVTITADKSTSTAYMELSSLRSEDTAVYYCARDGYSLYYFDYWGQGTLVTVSS
VL: DIVMTQSPDSLAVSLGERATINCKSSQSLLNSRTRKNYLAWYQQKPGQPPKLLIYWASTRQSGVPDRFSGSGSGTDFTLTISSLQAEDVAVYYCTQSHTLRTFGGGTKVEIK
notes: also called humanized anti-CD3 antibody; Humanized anti-CD3 mAb
Question: For B1, which EC50 [1] is on record?
Answer: 0.15 nM

Question: And the EC50 [2]?
Answer: 0.21 nM

B2: W3448-T3U1.E17R-1.uIgG4V9 (bispecific antibody)
heavy 1: QVQLVQSGAEVKKPGSSVKVSCKASGFAFTDYYIHWVRQAPGQGLEWMGWISPGNVNTKYNENFKGRVTITADKSTSTAYMELSSLRSEDTAVYYCARDGYSLYYFDYWGQGTLVTVSSASTKGPSVFPLAPCSRSTSESTAALGCLVKDYFPEPVTVSWNSGALTSGVHTFPAVLQSSGLYSLSSVVTVPSSSLGTKTYTCNVDHKPSNTKVDKRVESKYGPPCPPCPAPEAAGGPSVFLFPPKPKDTLMISRTPEVTCVVVDVSQEDPEVQFNWYVDGVEVHNAKTKPREEQFNSTYRVVSVLTVLHQDWLNGKEYKCKVSNKGLPSSIEKTISKAKGQPREPQVYTLPPCQEEMTKNQVSLWCLVKGFYPSDIAVEWESNGQPENNYKTTPPVLDSDGSFFLYSRLTVDKSRWQEGNVFSCSVMHEALHNHYTQKSLSLSLGK
light 1: not shown
heavy 2: QVQLQESGPGLVKPSETLSLTCTVSGGSVSSGDYYWTWIRQSPGKGLEWIGHIYYSGNTNYNPSLKSRLTISIDTSKTQFSLKLSSVTAADTAIYYCVRDRVTGAFDIWGQGTMVTVLEDLKNVFPPEVAVFEPSEAEISHTQKATLVCLATGFYPDHVELSWWVNGKEVHSGVCTDPQPLKEQPALQDSRYALSSRLRVSATFWQNPRNHFRCQVQFYGLSENDEWTQDRAKPVTQIVSAEAWGRYGPPCPPCPAPEAAGGPSVFLFPPKPKDTLMISRTPEVTCVVVDVSQEDPEVQFNWYVDGVEVHNAKTKPREEQFNSTYRVVSVLTVLHQDWLNGKEYKCKVSNKGLPSSIEKTISKAKGQPREPQVCTLPPSQEEMTKNQVSLSCAVKGFYPSDIAVEWESNGQPENNYKTTPPVLDSDGSFFLVSRLTVDKSRWQEGNVFSCSVMHEALHNHYTQKSLSLSLGK
light 2: DIQMTQSPSSLSASVGDRVTITCQASQDISNYLNWYQQKPGKAPKLLIYDASNLETGVPSRFSGSGSGTDFTFTISSLQPEDIATYFCQHFDHLPLAFGGGTKVEIKPDIQNPDPAVYQLRDSKSSDKSVCLFTDFDSQTQVSQSKDSDVYITDKCVLDMRSMDFKSNSAVAWSQKSDFACANAFQNSIIPEDTFFPSPESS
notes: Four-chain Ig-like bispecific: anti-CD3 Fab arm (T3) and anti-EGFR chimeric Fab arm with TCR constant domains (U1); IgG4 Fc with S228P, F234A, L235A and knob/hole mutations already contained in the full-length entries; also called lead BsAb; anti-CD3/anti-EGFR bispecific antibody
Question: What does the source list for B2?
Answer: EC50 [1]: 20.8 nM; Kd [3]: 4.7 nM; EC50 [2]: 26.4 nM

B3: Panitumumab (antibody, human IgG2, V domains shown)
VH: QVQLQESGPGLVKPSETLSLTCTVSGGSVSSGDYYWTWIRQSPGKGLEWIGHIYYSGNTNYNPSLKSRLTISIDTSKTQFSLKLSSVTAADTAIYYCVRDRVTGAFDIWGQGTMVTV
VL: DIQMTQSPSSLSASVGDRVTITCQASQDISNYLNWYQQKPGKAPKLLIYDASNLETGVPSRFSGSGSGTDFTFTISSLQPEDIATYFCQHFDHLPLAFGGGTKVEIK
notes: the VH end in the benchmark IgG may differ; also called Anti-EGFR antibody; anti-EGFR mAb
Question: Which EC50 [4] does the source give for B3 here?
Answer: 0.5 nM
